Experimental data reported in PMC11142708.

Target: microtubule
Assay: optical trap binding-time assay; kinesin held by its C-terminal His tag on a polystyrene bead (0.56 um, streptavidin with biotinylated penta-His antibody), at most one motor per bead, trapped 0, 20, 40 or 60 nm from a surface-attached microtubule; binding time = time from unbinding to the next detectable bead displacement (>15 nm); room temperature; motility buffer (80 mM Pipes pH 6.9, 50 mM CH3COOK, 4 mM MgSO4, 1 mM DTT, 1 mM EGTA, 10 uM taxol, 1 mg/mL casein) with 2 mM ATP and an oxygen-scavenging system; the rates of Table 1 are fits of Brownian dynamics models to the mean binding times of all three motor lengths together

| Substance | binding time (plateau at close distances) [s] | koff^ADP,fast (rate of the weak-to-strong binding transition on the microtubule; diffusion with ADP state model) [s⁻¹] | koff^MT (unbinding from the weakly bound state, at zero force; diffusion with ADP state model) [s⁻¹] | kon^MT (microscopic first-order binding rate when the head is within 5 nm of the microtubule; diffusion with ADP state model) [s⁻¹] | kon^MT (microscopic first-order binding rate; simple diffusion model) [s⁻¹] |
| --- | --- | --- | --- | --- | --- |
| DK-560-His (Kinesin-1, aa 1-560; His tag at c-term) (from UniProt P17210 1-560) (domain or fragment) | 1 | 2.12 | 0.2 | 70.7 | 80.6 |
| DK-406-His (Drosophila Kinesin aa 1-406; His tag at c-term) (from UniProt P17210 1-406) (domain or fragment) | 1 | 2.12 | 0.2 | 70.7 | 80.6 |
| DK-746-His (Drosophila Kinesin aa 1-746; His tag at c-term) (from UniProt P17210 1-746) (domain or fragment) | 1 | 2.12 | 0.2 | 70.7 | 80.6 |
